Data as given in US5919901.

Tests used:
[1] = target: rat NPY Y5 receptor, clone Y217.24.13.6B (rat); experiment: competition with [125I]PYY, membranes of transfected COS-7 cells; first individual value in brackets
[2] = target: rat NPY Y5 receptor, clone Y861 (rat); experiment: competition with [125I]PYY, membranes of transfected COS-7 cells
[3] = target: rat NPY Y5 receptor, clone Y217.24.13.6B (rat); experiment: competition with [125I]PYY, membranes of transfected COS-7 cells; second individual value in brackets
[4] = target: Rat Y2 (clone) (rat); experiment: competition with [125I]PYY on the rat Y2 clone
[5] = target: Rat Y1 (clone) (rat) (UniProt P21555); experiment: competition with [125I]PYY on the rat Y1 clone
[6] = target: Rat Y4/PP1 (clone) (rat) (UniProt Q63447); experiment: competition with rat [125I]PP on the rat Y4/PP1 clone
Chain of Rat Y4/PP1 (clone) (rat) (Q63447 whole entry): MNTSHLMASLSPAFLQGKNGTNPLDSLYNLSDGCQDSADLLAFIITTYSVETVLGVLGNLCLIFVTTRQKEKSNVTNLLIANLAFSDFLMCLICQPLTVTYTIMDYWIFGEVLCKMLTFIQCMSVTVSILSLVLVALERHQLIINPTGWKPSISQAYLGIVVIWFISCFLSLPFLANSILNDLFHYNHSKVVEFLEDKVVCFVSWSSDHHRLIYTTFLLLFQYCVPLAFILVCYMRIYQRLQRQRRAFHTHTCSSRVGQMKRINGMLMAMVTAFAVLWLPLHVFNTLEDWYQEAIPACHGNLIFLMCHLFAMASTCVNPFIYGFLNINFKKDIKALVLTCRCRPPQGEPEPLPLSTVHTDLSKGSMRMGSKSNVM

[7] = target: rat NPY Y5 receptor, clone Y555 (rat); experiment: competition with [125I]PYY, membranes of transfected COS-7 cells; first individual value in brackets
[8] = target: rat NPY Y5 receptor, clone Y555 (rat); experiment: competition with [125I]PYY, membranes of transfected COS-7 cells; average of two experiments
[9] = target: rat NPY Y5 receptor, clone Y555 (rat); experiment: competition with [125I]PYY, membranes of transfected COS-7 cells; second individual value in brackets

Substance | IC50 [4] [nM] | IC50 [5] [nM] | other results
h(Leu^31 Pro^34)PYY (from UniProt P10082) (peptide) | – | – | IC50 [1]: 0.65 nM; IC50 [2]: 2 nM; IC50 [3]: 0.69 nM
r/hNPY (from UniProt P01303) (peptide) | 0.24 | – | –
r/h(2-36)NPY (from UniProt P01303) (peptide) | 0.5 | – | –
p(13-36)NPY (from UniProt P01304) (peptide) | 1.3 | – | –
r/hNPY, P01303 (peptide; other documents disagree on this pair) | – | – | IC50 [6]: > 1000 nM
r/h(LP)NPY (from UniProt P01303) (peptide) | – | – | IC50 [7]: 1 nM; IC50 [8]: 0.96 nM; IC50 [9]: 0.92 nM
p(Leu^31 Pro^34)NPY (from UniProt P01304) (peptide) | 150 | 0.15 | –

Further lines, with some results ahead:

IC50 [4] [nM] | IC50 [5] [nM] | Substance | other results
0.079 | – | rPYY (from UniProt P10631) (peptide) | –
> 1000 | – | rPP (from UniProt P06303) (peptide) | –
– | > 1000 | r/h(32D-Trp)NPY (from UniProt P01303) (peptide) | IC50 [2]: 7 nM
154 | 44 | r/h(Leu^31 Pro^34)(3-36)NPY (from UniProt P01303) (peptide) | –
> 1000 | > 1000 | (1-24)NPY (peptide) | IC50 [2]: > 1000 nM
0.42 | – | r/h(10-36)NPY (from UniProt P01303) (peptide) | –
